Tests used:
[1] = substrate: OC[C@H]1O[C@@H](O[C@H]2[C@H](O)[C@@H](O)C(O)O[C@@H]2CO)[C@H](O)[C@@H](O)[C@@H]1O; assay: purified protein, by the assay type; conditions: other: cellobiose as substrate, 50° C., pH 4.8, Hanes plot
[2] = Hydrolysis of cellodextrins (cellohexaose); format: biochemical; conditions: 50 C, pH 4.8, 30 min time course
Procedure: Hydrolysis of cellohexaose was carried out by mixing, in the ratio 1:1, 0.2 mM cellohexaose in 50 mM NaCltrate buffer pH 4.8 and enzyme diluted in 50 mM NaCltrate buffer pH 4.8 to a concentration of 3.7 μg/ml. The reaction was incubated at 50° C. and for a period of 30 min, 100 μl sample was placed on ice every 5 min. 100 μl 200 mM NaOH was added to terminate the reaction, and after another 1 fold dilution with 100 mM NaOH, the samples were analyzed at Dionex ICS3000 using gradient elution: 0-30% eluent B in 26 min followed by 2 min washing with 50% eluent B (0.5 M NaAcetate in 100 mM NaOH) and 5 min re-equilibrating with 100% eluent A (100 mM NaOH).
(§1) Michaelis Menten kinetics, glucose tolerance, termostability, pH optimum, and cellodextrin hydrolysis were carried out as described in EXAMPLE 1.

[3] = pH profile of beta-glucosidase activity on pNPG; format: biochemical; conditions: 50 C
Procedure: For testing the pH optimum of the enzyme extracts, they were assayed at 50° C. with 5 mM pNPG in Citrate Phosphate buffer at different pH ranging from 2.65 to 7.25. Endoglucanase activity of Celluclast 1.5 L was assayed with AZO-CMC as described by the manufacturer (Megazyme), but testing the same pH range 2.65-7.25 as for the pNPG assay.
as §1

[4] = Thermostability: remaining beta-glucosidase activity after incubation at different temperatures; format: physicochemical
Procedure: For testing the thermostability of the enzyme extract, aliquots of the extracts were incubated in PCR tubes in a thermocycler with temperature gradient option at 12 different temperatures from 48.5 to 67.0° C. for different time periods (0-4 hours) followed by assaying the activity at 50° C. with 5 mM pNPG in NaCltrate buffer pH 4.8 as substrate. The rate of denaturation, kD, was calculated as the slope of a semi-logaritmic plot of remaining activity vs incubation time. The half life was calculated as: T1/2=ln(2)/kD.
as §1

B1: Aspergillus saccharolyticus CBS 127449 beta-glucosidase BGL1, his-tagged, expressed in T. reesei, SEQ ID NO: 3 (without signal peptide SEQ ID NO: 4) … (protein)
chain: DELAFASPFYPSPWANGQGEWADAYKRAVDIVSQMTLDEKVNLTTGTGWELEKCVGQTGGVPRLDIGGMCLQDSPLGVRDSDYNSGFPAGVNVAATWDRKLAYLRGQAMGQEFSDKGVDVQLGPAAGPLGRSPDGGRNWEGFSPDPALTGVLFAETIKGIQDAGVIATAKHYILNEQEHFRQVSEAAGYGFNISDTISSNIDDKTIHEMYLWPFADAVRAGVGAVMCSYNQINNSYACQNSYTLNKLLKSELGFQGFVMSDWGAHHSGVGSALAGLDMSMPGDVSFDSATSFWGTNLTVAVLNGTVPQWRVDDMAVRIMAAYYKVGRDRLYQPPNFSSWTRDEYGFKYYYSQEGPYEKVNQYVNVQRNHSEVIRKVGADSTVLLKNNNALPLTGKERKVALIGEDAGSNAYGANGCSDRGCDNGTLAMAWGSGTAEFPYLVTPEQAIQAEVLKNKGSTYTITDNWALSQVEALAKTASVSLVFVNADSGEGYISVDGNEGDRNNLTLWKNGDNLIKATASNCNNTIVVIHSVGAVLVDEWYDHPNVTAILWAGLPGQESGNSLADVLYGRVNPGGKTPFTWGKTRASYGDYLVREPNNGHGAPQDNFSEGVFIDYRGFDKRNETPIYEFGHGLSYTTFNYSGLQVEVLNTSSSTPVATQTKPAPTFGEIGNASDYLYPEGLDRITAFIYPWLNSTDLKESSGDPDYGVDTAKYIPAGATNSSAQPVLPAGGGFGGNPRLYDELIRVSVTVKNTGRVTGDAVPQLYVSLGGPNEPKVVLRQFDRITLRPSEETVWTTTLTRRDLSNWDVAAQDWVITSYPKKVHVGSSSRQLPLHAALPKVQ
B1 gave a Km [1] of 1900 µM.

B2: BGL1: GH family 3 beta-glucosidase of Aspergillus saccharolyticus; his-tagged, expressed in T. reesei and purified for characterisation (protein, listed as Aspergillus saccharolyticus)
chain: DELAFASPFYPSPWANGQGEWADAYKRAVDIVSQMTLDEKVNLTTGTGWELEKCVGQTGGVPRLDIGGMCLQDSPLGVRDSDYNSGFPAGVNVAATWDRKLAYLRGQAMGQEFSDKGVDVQLGPAAGPLGRSPDGGRNWEGFSPDPALTGVLFAETIKGIQDAGVIATAKHYILNEQEHFRQVSEAAGYGFNISDTISSNIDDKTIHEMYLWPFADAVRAGVGAVMCSYNQINNSYACQNSYTLNKLLKSELGFQGFVMSDWGAHHSGVGSALAGLDMSMPGDVSFDSATSFWGTNLTVAVLNGTVPQWRVDDMAVRIMAAYYKVGRDRLYQPPNFSSWTRDEYGFKYYYSQEGPYEKVNQYVNVQRNHSEVIRKVGADSTVLLKNNNALPLTGKERKVALIGEDAGSNAYGANGCSDRGCDNGTLAMAWGSGTAEFPYLVTPEQAIQAEVLKNKGSTYTITDNWALSQVEALAKTASVSLVFVNADSGEGYISVDGNEGDRNNLTLWKNGDNLIKATASNCNNTIVVIHSVGAVLVDEWYDHPNVTAILWAGLPGQESGNSLADVLYGRVNPGGKTPFTWGKTRASYGDYLVREPNNGHGAPQDNFSEGVFIDYRGFDKRNETPIYEFGHGLSYTTFNYSGLQVEVLNTSSSTPVATQTKPAPTFGEIGNASDYLYPEGLDRITAFIYPWLNSTDLKESSGDPDYGVDTAKYIPAGATNSSAQPVLPAGGGFGGNPRLYDELIRVSVTVKNTGRVTGDAVPQLYVSLGGPNEPKVVLRQFDRITLRPSEETVWTTTLTRRDLSNWDVAAQDWVITSYPKKVHVGSSSRQLPLHAALPKVQ
modifications: His tag
notes: GH family 3 beta-glucosidase of Aspergillus saccharolyticus; his-tagged, expressed in T. reesei and purified for characterisation
With B2 the “mode of action in hydrolysis of cellohexaose” value [2] was “hydrolyzes the different cellodextrins through exohydrolase action”, the “activity at basic conditions” value [3] was “below 10%” and the “activity within pH range 3.8-4.8” value [3] was “above 90 % of maximum”. The pH optimum [3] was roughly 4.2 pH, the “activity retained after 2 hours of incubation” value ([4]; 60 C) was “more than 90%” and the “activity retained after 4 hours of incubation” value ([4]; 60 C) was “more than 70%”. For the same molecule, the “activity retained after 2 hours of incubation” value ([4]; 67 C) was “approx. 10%”, the “stability at 50 C” value ([4]; purified BGL1) was “stable throughout the incubation period” and the half-life ([4]; purified BGL1, from 62 C up to 65 C) was “less than 2.5 hours”. The calculated half-life ([4]; purified BGL1, temperatures above 60 C) was “approximately 6 hours” and the “stability at temperatures up to 58 C” value ([4]; up to four hours of incubation) was “fairly stable”.
